Data: the supplement of paper PMC9170038

Test system: K4 kissing-loop RNA reporter
Experiment: apparent KD of K4 kissing-loop reporter; higher = weaker reporter binding
Conditions: Eterna round: R107
Procedure: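 RNA-MaP round R107: designed RNA switches with theophylline, tryptophan, arginine or FMN aptamers are transcribed on-chip within common flanks. They are titrated with a labelled K4 kissing-loop RNA reporter in RNA-MaP buffer (100 mM Tris pH 7.5, 80 mM KCl, 4 mM MgCl2), without ligand or with the indicated ligand. Median apparent KD per design.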

[1] = input ligand: theophylline 20 uM
[2] = input ligand: tryptophan 2.4 mM
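Note: bound reporter read as fluorescence of individual clusters on recovered sequencing chips by microscopy, with normalized cluster intensities fitted with a binding model.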

AGACCACAAAGUGGUCAGUGUUCGCUCCGGCGAGGACCGGUACGGCCGCCACUCGCGAGUGAUGUUCGCGAGUGGAGCGAACACA [Omei KL Tryp A Exc A v1]
apparent KD of K4 kissing-loop reporter (input ligand: FMN 200 uM): 0.0888 µM | apparent KD of K4 kissing-loop reporter (input ligand: arginine 13.2 mM): 0.078 µM | apparent KD of K4 kissing-loop reporter (input ligand: none): 0.0886 µM | apparent KD of K4 kissing-loop reporter [1]: 0.076 µM | apparent KD of K4 kissing-loop reporter [2]: 0.0863 µM

AGACCACAAAGUGGUCAGUGUUCGCUGCCGCGAGGACCGGUACGGCCGCCACUCGCGAGUGAUGUUCGCGAGGGCAGCGAACACA [Omei KL Tryp A Exc A v4]
apparent KD of K4 kissing-loop reporter (input ligand: FMN 200 uM): 0.0997 µM | apparent KD of K4 kissing-loop reporter (input ligand: arginine 13.2 mM): 0.0878 µM | apparent KD of K4 kissing-loop reporter (input ligand: none): 0.0879 µM | apparent KD of K4 kissing-loop reporter [1]: 0.0868 µM | apparent KD of K4 kissing-loop reporter [2]: 0.106 µM

AGACUACCACACUGUCAAUAGACAGUGAACUAGGAUAUGCUGAUAAGCAGAAGGAGUGAUGUUCCGAGGUAGUCAAUAAAAUAAU [FmnAX 13 G66]
apparent KD of K4 kissing-loop reporter (input ligand: FMN 200 uM): 0.281 µM | apparent KD of K4 kissing-loop reporter (input ligand: arginine 13.2 mM): 0.246 µM | apparent KD of K4 kissing-loop reporter (input ligand: none): 0.287 µM | apparent KD of K4 kissing-loop reporter [1]: 0.334 µM | apparent KD of K4 kissing-loop reporter [2]: 0.289 µM

AGACUACCACACUGUCAAUAGACAGUGUACUAGGAUAUGCUGAUAAGCAGAAGGAGUGAUGUUCCUCGGUAGUCAAUAAAAUAAU [FmnAX 13 U28+C67]
apparent KD of K4 kissing-loop reporter (input ligand: FMN 200 uM): 0.22 µM | apparent KD of K4 kissing-loop reporter (input ligand: arginine 13.2 mM): 0.3 µM | apparent KD of K4 kissing-loop reporter (input ligand: none): 0.286 µM | apparent KD of K4 kissing-loop reporter [1]: 0.35 µM | apparent KD of K4 kissing-loop reporter [2]: 0.276 µM

AGACUACUGACAGGAUAUAACAUACUAGCUCGUAUACCAAAGGUAUACGAGCACCUUCUAGUGAUGUUAGAAGGGUCGGUAGUCA [Omei KL FMN B Exc B v2]
apparent KD of K4 kissing-loop reporter (input ligand: FMN 200 uM): 0.412 µM | apparent KD of K4 kissing-loop reporter (input ligand: arginine 13.2 mM): 0.264 µM | apparent KD of K4 kissing-loop reporter (input ligand: none): 0.3 µM | apparent KD of K4 kissing-loop reporter [1]: 0.31 µM | apparent KD of K4 kissing-loop reporter [2]: 0.31 µM

AGACUACUGAUAGGAUAUAACAUCCUAGUCGUAUACCGAAAGGUAUACGAUUUCCUUCUAGUGAUGUUAGAAGGGUCGGUAGUCA [Omei KL FMN B Exc B v11]
apparent KD of K4 kissing-loop reporter (input ligand: FMN 200 uM): 0.106 µM | apparent KD of K4 kissing-loop reporter (input ligand: arginine 13.2 mM): 0.0824 µM | apparent KD of K4 kissing-loop reporter (input ligand: none): 0.0891 µM | apparent KD of K4 kissing-loop reporter [1]: 0.0811 µM | apparent KD of K4 kissing-loop reporter [2]: 0.0891 µM

AGACUUCACCGAAGGAGCGACGUGGCCUAGUGAUGUUAGGUACGAGAGAAAUCUCGUAUACGUCAGGUAGGUCGCGGUGAAGUCA [Omei KL Arginine B SS C v8]
apparent KD of K4 kissing-loop reporter (input ligand: FMN 200 uM): 0.868 µM | apparent KD of K4 kissing-loop reporter (input ligand: arginine 13.2 mM): 0.643 µM | apparent KD of K4 kissing-loop reporter (input ligand: none): 0.997 µM | apparent KD of K4 kissing-loop reporter [1]: 0.721 µM | apparent KD of K4 kissing-loop reporter [2]: 0.83 µM

AGAGUUAUAUGAGGAUAUGGGAUAGUAACUGAGUGAGUUAUAGUGUAGUUUGUUUAGUGAUGUUAUUUAGAAGGCGUGAGUGAUG [wwwsemullin]
apparent KD of K4 kissing-loop reporter (input ligand: FMN 200 uM): 0.162 µM | apparent KD of K4 kissing-loop reporter (input ligand: arginine 13.2 mM): 0.121 µM | apparent KD of K4 kissing-loop reporter (input ligand: none): 0.147 µM | apparent KD of K4 kissing-loop reporter [1]: 0.182 µM | apparent KD of K4 kissing-loop reporter [2]: 0.107 µM

AGAGUUAUGCGAGGAUAUGCAGUUAGUACUCAAAGAGUACUAACGCAGAGUGAUGUUCUGUGAAAAGCAGAAGGUGCAUAACUCA [Omei KL FMN B SS B v6]
apparent KD of K4 kissing-loop reporter (input ligand: FMN 200 uM): 0.155 µM | apparent KD of K4 kissing-loop reporter (input ligand: arginine 13.2 mM): 0.65 µM | apparent KD of K4 kissing-loop reporter (input ligand: none): 0.693 µM | apparent KD of K4 kissing-loop reporter [1]: 0.597 µM | apparent KD of K4 kissing-loop reporter [2]: 0.669 µM

AGAUAGGGCUGAAGGAGCGUCGGAGAAGAGAAGAAGGAAUCCAGUGAUGUUGGAUAAAUCCGACAGGUAGGUCGCAGUUUUAUGA [hbob_SS_Arginine_B_2t138]
apparent KD of K4 kissing-loop reporter (input ligand: FMN 200 uM): 0.108 µM | apparent KD of K4 kissing-loop reporter (input ligand: arginine 13.2 mM): 0.126 µM | apparent KD of K4 kissing-loop reporter (input ligand: none): 0.099 µM | apparent KD of K4 kissing-loop reporter [1]: 0.109 µM | apparent KD of K4 kissing-loop reporter [2]: 0.115 µM

AGAUGGAAUAGAAGGAGCGGCGCCAGUGAUGUUGGAUGCCGCGGGUGAAUCAGAUCAUAGUGCCAGGUAGGUCGCUAUUUCAGCG [Anedin]
apparent KD of K4 kissing-loop reporter (input ligand: FMN 200 uM): 0.113 µM | apparent KD of K4 kissing-loop reporter (input ligand: arginine 13.2 mM): 0.101 µM | apparent KD of K4 kissing-loop reporter (input ligand: none): 0.106 µM | apparent KD of K4 kissing-loop reporter [1]: 0.116 µM | apparent KD of K4 kissing-loop reporter [2]: 0.112 µM

AGCCUUACAUCGGCCGCCACUUCCCUGGCAGUGAUGUUGCCGUAGACAAUCAUUCUACCCUGGAGAAGGACCGGGAUGCAGAAAC [theeternabot_sameState_KL_Trp_B_8]
apparent KD of K4 kissing-loop reporter (input ligand: FMN 200 uM): 0.154 µM | apparent KD of K4 kissing-loop reporter (input ligand: arginine 13.2 mM): 0.185 µM | apparent KD of K4 kissing-loop reporter (input ligand: none): 0.167 µM | apparent KD of K4 kissing-loop reporter [1]: 0.223 µM | apparent KD of K4 kissing-loop reporter [2]: 0.329 µM

AGCGUCUGAAGAGGAUAUGACCAGUGAUGUUGGUUACUACCUCAAAUUAGUGUCGCGCCAAAAUCGUCAGAAGGCUUCGGCGCGC [Ussoes]
apparent KD of K4 kissing-loop reporter (input ligand: FMN 200 uM): 0.135 µM | apparent KD of K4 kissing-loop reporter (input ligand: arginine 13.2 mM): 0.092 µM | apparent KD of K4 kissing-loop reporter (input ligand: none): 0.0986 µM | apparent KD of K4 kissing-loop reporter [1]: 0.0967 µM | apparent KD of K4 kissing-loop reporter [2]: 0.0929 µM

AGCUCAGAGUGACUCGAUAAGAGUCACAAACGAGGACCGGUACGGCCGCCACUCGAAAUAAGGAGAGUGAUGUUCUCGCUGAGCA [FiskerMod 8 - Jieux - Same State Tryptophan A]
apparent KD of K4 kissing-loop reporter (input ligand: FMN 200 uM): 0.454 µM | apparent KD of K4 kissing-loop reporter (input ligand: arginine 13.2 mM): 0.0815 µM | apparent KD of K4 kissing-loop reporter (input ligand: none): 0.124 µM | apparent KD of K4 kissing-loop reporter [1]: 0.0351 µM | apparent KD of K4 kissing-loop reporter [2]: 0.345 µM

AGGACGGUUAUGGAUACCAGUCCGGAACUUGUCCAUGGAGUGAUGUUCCGUCCAGCUCCGGACCCUUGGCAGCCAGACUGCUGAA [theeternabot_sameState_KL_Theo_B_41]
apparent KD of K4 kissing-loop reporter (input ligand: FMN 200 uM): 0.185 µM | apparent KD of K4 kissing-loop reporter (input ligand: arginine 13.2 mM): 0.189 µM | apparent KD of K4 kissing-loop reporter (input ligand: none): 0.192 µM | apparent KD of K4 kissing-loop reporter [1]: 0.138 µM | apparent KD of K4 kissing-loop reporter [2]: 0.198 µM

AGGAUGUAGUGAUGUUAUAUAAAAGGUAAACGAGGACCGGUACGGCCGCCACUCGAAGCGGCUGCUAAGAGGGAAAGAAGAGGAA [ExTryptoA.E]
apparent KD of K4 kissing-loop reporter (input ligand: FMN 200 uM): 0.496 µM | apparent KD of K4 kissing-loop reporter (input ligand: arginine 13.2 mM): 0.464 µM | apparent KD of K4 kissing-loop reporter (input ligand: none): 0.57 µM | apparent KD of K4 kissing-loop reporter [1]: 0.684 µM | apparent KD of K4 kissing-loop reporter [2]: 0.371 µM

AGGCACGAGCAAGGAUAUCGAGUAGAGUGAUGUUCUGCCUGGGUUGGCUCGAAAGAGCCUUCUCAGCGAGAAGGUGCUCGUGCCU [#2 Same State - FMN A Attempt #21 (HarryS)]
apparent KD of K4 kissing-loop reporter (input ligand: FMN 200 uM): 0.248 µM | apparent KD of K4 kissing-loop reporter (input ligand: arginine 13.2 mM): 0.604 µM | apparent KD of K4 kissing-loop reporter (input ligand: none): 0.982 µM | apparent KD of K4 kissing-loop reporter [1]: 0.638 µM | apparent KD of K4 kissing-loop reporter [2]: 0.751 µM

AGGCACGAGCAAGGAUAUUGAGUAGAGUGAUGUUCUGCCUAAGUUGGCUCGAAAGAGCCUUCUUAGCGAGAAGGUGCUCGUGCCU [#2 Same State - FMN A Attempt #26 (HarryS)]
apparent KD of K4 kissing-loop reporter (input ligand: FMN 200 uM): 0.297 µM | apparent KD of K4 kissing-loop reporter (input ligand: arginine 13.2 mM): 0.534 µM | apparent KD of K4 kissing-loop reporter (input ligand: none): 0.666 µM | apparent KD of K4 kissing-loop reporter [1]: 0.812 µM | apparent KD of K4 kissing-loop reporter [2]: 0.763 µM

AGGGUUAAUUAGUCUUUUUUCACAUUAAGUCAGGAUAUCGUAUUUUCGAGAAGGGACACAUGCUAGUGAUGUUAGCUAUUUCCCA [#02 K4 FMN A Exclusion]
apparent KD of K4 kissing-loop reporter (input ligand: FMN 200 uM): 0.0773 µM | apparent KD of K4 kissing-loop reporter (input ligand: arginine 13.2 mM): 0.115 µM | apparent KD of K4 kissing-loop reporter (input ligand: none): 0.0906 µM | apparent KD of K4 kissing-loop reporter [1]: 0.122 µM | apparent KD of K4 kissing-loop reporter [2]: 0.0862 µM

AGGUCACUACUACAGUGAUGUUGUGGAGAGCAGGAUAUGCAGAAAUGCAGAAGGGCUCGCUCUCAGUGACCGAAUGAAACAUUCA [Omei KL FMN A SS A v8]
apparent KD of K4 kissing-loop reporter (input ligand: FMN 200 uM): 0.663 µM | apparent KD of K4 kissing-loop reporter (input ligand: arginine 13.2 mM): 0.724 µM | apparent KD of K4 kissing-loop reporter (input ligand: none): 0.712 µM | apparent KD of K4 kissing-loop reporter [1]: 0.566 µM | apparent KD of K4 kissing-loop reporter [2]: 0.838 µM

AGGUCCGAGCCCGGAAGGGCUCGGACCUGUUAGGAUAUGACGUGAUUCAGAAGGGAUGGGUGGAGUGAUGUUCCACCCGAGAGGG [#2 Same State - FMN A Attempt #20 (HarryS)]
apparent KD of K4 kissing-loop reporter (input ligand: FMN 200 uM): 0.105 µM | apparent KD of K4 kissing-loop reporter (input ligand: arginine 13.2 mM): 0.0893 µM | apparent KD of K4 kissing-loop reporter (input ligand: none): 0.0912 µM | apparent KD of K4 kissing-loop reporter [1]: 0.102 µM | apparent KD of K4 kissing-loop reporter [2]: 0.109 µM
